Tested on: control human primary myoblasts
Assay: Expression microarray of primary myoblasts transduced with lentivirus carrying DUX4-fl, DUX4-s or GFP
Protocol: Primary human myoblasts were collected and cultured as previously described (Snider et al., 2010). Primary myoblasts were maintained at or below 70% confluency for proliferation. For differentiation, cells were allowed to reach 95-100% confluency in growth medium. Once confluency was reached, the cells were changed to differentiation medium (F10 media supplemented with 1% horse serum, 10 μg/mL insulin, and 10 μg/mL transferrin, penicillin/streptomycin) and maintained for 4 days. Human RD cells were grown in DMEM in 10% bovine calf serum (Hyclone) and penicillin/streptomycin. The primary myoblasts were transduced with lentivirus carrying DUX-fl, DUX4- or GFP (MOI=15).
Expression microarrays were performed on the transduced cells at 24 hours after transduction as follows. […] Samples were analyzed by Illumina Human Whole Genome microarrays. Probe intensities were corrected, normalized, and summarized by the Lumi package of Bioconductor (Du et al., 2008). Differentially expressed genes were identified by the LIMMA package of Bioconductor (Wettenhall and Smyth, 2004). Gene set enrichment analysis (GSEA) was performed using the Bioconductor GOstats package (Falcon and Gentleman, 2007).

B1: DUX4-s: short splice form of DUX4 (SEQ ID NO:112), keeps the double-homeobox domains, lacks the C-terminal activation domain (protein, listed as Homo sapiens)
chain: MALPTPSDSTLPAEARGRGRRRRLVWTPSQSEALRACFERNPYPGIATRERLAQAIGIPEPRVQIWFQNERSRQLRQHRRESRPWPGRRGPPEGRRKRTAVTGSQTALLLRAFEKDRFPGIAAREELARETGLPESRIQIWFQNRRARHPGQGGRAPAQV
MYBPHL expression fc (cultured human skeletal muscle): −0.5205 | MYF5 expression fc (cultured human skeletal muscle): 0.291 | MYH13 expression fc (cultured human skeletal muscle): −1.541 | NACC2 expression fc (cultured human skeletal muscle): 0.9823 | NFIL3 expression fc (cultured human skeletal muscle): 0.3195 | NFKB1 expression fc (cultured human skeletal muscle): 0.05546 | NFKBIZ expression fc (cultured human skeletal muscle): −0.2644 | NINJ1 expression fc (cultured human skeletal muscle): 0.2107 | NPTX2 expression fc (cultured human skeletal muscle): 0.122 | NRXN2 expression fc (cultured human skeletal muscle): −0.2444 | NT5E expression fc (cultured human skeletal muscle): 0.489 | OCEL1 expression fc (cultured human skeletal muscle): −0.0991 | P2RX6 expression fc (cultured human skeletal muscle): −0.7432 | PARP3 expression fc (cultured human skeletal muscle): 0.1606 | PCK2 expression fc (cultured human skeletal muscle): 0.4194 | PCTK3 expression fc (cultured human skeletal muscle): 0.5932 | PDK4 expression fc (cultured human skeletal muscle): 0.02699 | PDPN expression fc (cultured human skeletal muscle): −0.2902 | PFKFB4 expression fc (cultured human skeletal muscle): 0.4582 | PHF15 expression fc (cultured human skeletal muscle): 0.2557 | PHLDA3 expression fc (cultured human skeletal muscle): 0.1958 | PLA2G4C expression fc (cultured human skeletal muscle): 0.07403 | PLEKHA4 expression fc (cultured human skeletal muscle): 1.33 | PLIN2 expression fc (cultured human skeletal muscle): 0.6107 | PLXNB1 expression fc (cultured human skeletal muscle): −0.09843 | PLXNB2 expression fc (cultured human skeletal muscle): 0.2031 | PPAP2B expression fc (cultured human skeletal muscle): 0.05885 | PPP3CC expression fc (cultured human skeletal muscle): 0.2562 | PRDM1 expression fc (cultured human skeletal muscle): −0.09376 | PRKCD expression fc (cultured human skeletal muscle): 0.349 | PSMB10 expression fc (cultured human skeletal muscle): 0.7464 | PSME2 expression fc (cultured human skeletal muscle): 0.4304 | PTGES expression fc (cultured human skeletal muscle): 0.3116 | PTPRU expression fc (cultured human skeletal muscle): 0.2612 | RALGDS expression fc (cultured human skeletal muscle): 0.0686 | RBCK1 expression fc (cultured human skeletal muscle): 0.326 | RBM43 expression fc (cultured human skeletal muscle): 0.3215 | RCAN1 expression fc (cultured human skeletal muscle): 0.9917 | RELB expression fc (cultured human skeletal muscle): 0.2914 | RGS20 expression fc (cultured human skeletal muscle): 0.08652 | RHBDF2 expression fc (cultured human skeletal muscle): 0.3815 | RRAS expression fc (cultured human skeletal muscle): −0.1908 | RRBP1 expression fc (cultured human skeletal muscle): 0.09904 | RTKN expression fc (cultured human skeletal muscle): −0.2678 | RTTN expression fc (cultured human skeletal muscle): 0.009387 | RUSC1 expression fc (cultured human skeletal muscle): 0.03464 | SERPING1 expression fc (cultured human skeletal muscle): 1.214 | SESN1 expression fc (cultured human skeletal muscle): −0.1133 | SHISA5 expression fc (cultured human skeletal muscle): −0.2735 | SIX5 expression fc (cultured human skeletal muscle): −0.3614 | SLC16A3 expression fc (cultured human skeletal muscle): 0.4873 | SLC22A18 expression fc (cultured human skeletal muscle): −0.05235 | SLC25A28 expression fc (cultured human skeletal muscle): 0.7251 | SLC39A14 expression fc (cultured human skeletal muscle): 0.4801 | SPTLC3 expression fc (cultured human skeletal muscle): 0.2428 | SQSTM1 expression fc (cultured human skeletal muscle): 0.1771 | SRGN expression fc (cultured human skeletal muscle): 0.2031 | STC1 expression fc (cultured human skeletal muscle): 0.8132 | STEAP3 expression fc (cultured human skeletal muscle): −0.291 | SUSD2 expression fc (cultured human skeletal muscle): −2.022 | TAPBP expression fc (cultured human skeletal muscle): 0.474 | TCEA3 expression fc (cultured human skeletal muscle): −0.1206 | TCP11L1 expression fc (cultured human skeletal muscle): 0.7816 | TMEM45A expression fc (cultured human skeletal muscle): 0.4128 | TMEM173 expression fc (cultured human skeletal muscle): 0.3673 | TNFAIP2 expression fc (cultured human skeletal muscle): 0.05713 | TNFRSF1A expression fc (cultured human skeletal muscle): 0.2727 | TNFRSF6B expression fc (cultured human skeletal muscle): 0.00925 | TNFSF13B expression fc (cultured human skeletal muscle): 2.19 | TNS3 expression fc (cultured human skeletal muscle): −0.1648 | TRAF3IP2 expression fc (cultured human skeletal muscle): 0.7299 | TRIP6 expression fc (cultured human skeletal muscle): 0.003438 | TRNP1 expression fc (cultured human skeletal muscle): 0.007844 | TSC22D3 expression fc (cultured human skeletal muscle): 0.2002 | VASN expression fc (cultured human skeletal muscle): 0.2877 | VEZF1 expression fc (cultured human skeletal muscle): −0.6876 | XBP1 expression fc (cultured human skeletal muscle): 0.3357 | ZBTB4 expression fc (cultured human skeletal muscle): 0.002479 | ZC3H12A expression fc (cultured human skeletal muscle): 0.5426 | ZFHX3 expression fc (cultured human skeletal muscle): 0.5029 | ZFP36L2 expression fc (cultured human skeletal muscle): 0.7338 | ZFP90 expression fc (cultured human skeletal muscle): −0.1973 | ZNF337 expression fc (cultured human skeletal muscle): −0.04356 | ZNF395 expression fc (cultured human skeletal muscle): 0.2584 | Log2 Fc AMACR (vs lenti-GFP, 24 h): 0.1 log2 | Log2 Fc ARIH1 (vs lenti-GFP, 24 h): 0.8 log2 | Log2 Fc ARS2 (vs lenti-GFP, 24 h): −0.2 log2 | Log2 Fc CBARA1 (vs lenti-GFP, 24 h): −0.2 log2 | Log2 Fc CD24 (vs lenti-GFP, 24 h): −0.4 log2 | Log2 Fc CSAG3 (vs lenti-GFP, 24 h): 0.1 log2 | Log2 Fc CSE1L (vs lenti-GFP, 24 h): 0.1 log2 | Log2 Fc CWC15 (vs lenti-GFP, 24 h): 0.1 log2 | Log2 Fc CXADR (vs lenti-GFP, 24 h): −0.1 log2 | Log2 Fc CXCR4 (vs lenti-GFP, 24 h): −0.1 log2 | Log2 Fc DBR1 (vs lenti-GFP, 24 h): 0.2 log2 | Log2 Fc DEFB103B (vs lenti-GFP, 24 h): 0.1 log2 | Log2 Fc FBXO33 (vs lenti-GFP, 24 h): 0.2 log2 | Log2 Fc FGFR3 (vs lenti-GFP, 24 h): 0.0 log2 | Log2 Fc FLJ45337 (vs lenti-GFP, 24 h): −0.2 log2 | Log2 Fc GTF2F1 (vs lenti-GFP, 24 h): 0.3 log2 | Log2 Fc HNRNPCL1 (vs lenti-GFP, 24 h): −0.1 log2 | Log2 Fc HOXB2 (vs lenti-GFP, 24 h): 0.0 log2 | Log2 Fc HSPA2 (vs lenti-GFP, 24 h): −0.3 log2 | Log2 Fc ID2 (vs lenti-GFP, 24 h): 0.3 log2 | Log2 Fc IFRD1 (vs lenti-GFP, 24 h): −0.2 log2 | Log2 Fc JUP (vs lenti-GFP, 24 h): −0.1 log2 | Log2 Fc KHDC1L (vs lenti-GFP, 24 h): −0.1 log2 | Log2 Fc MBD3L2 (vs lenti-GFP, 24 h): 0.0 log2 | Log2 Fc MED26 (vs lenti-GFP, 24 h): 0.1 log2 | Log2 Fc MGC10997 (vs lenti-GFP, 24 h): −0.3 log2 | Log2 Fc PABPN1 (vs lenti-GFP, 24 h): −0.3 log2 | Log2 Fc PELI1 (vs lenti-GFP, 24 h): 0.1 log2 | Log2 Fc PNMA6B (vs lenti-GFP, 24 h): −0.2 log2 | Log2 Fc PRAMEF1 (vs lenti-GFP, 24 h): 0.1 log2 | Log2 Fc PVRL3 (vs lenti-GFP, 24 h): 0.4 log2 | Log2 Fc RMRP (vs lenti-GFP, 24 h): 0.1 log2 | Log2 Fc RNGTT (vs lenti-GFP, 24 h): −0.6 log2 | Log2 Fc RPPH1 (vs lenti-GFP, 24 h): 0.2 log2 | Log2 Fc RRN3 (vs lenti-GFP, 24 h): 0.1 log2 | Log2 Fc SFRS2B (vs lenti-GFP, 24 h): −0.3 log2 | Log2 Fc SFRS17A (vs lenti-GFP, 24 h): 0.2 log2 | Log2 Fc SIAH1 (vs lenti-GFP, 24 h): −0.1 log2 | Log2 Fc SLC2A14 (vs lenti-GFP, 24 h): 0.2 log2 | Log2 Fc SLC34A2 (vs lenti-GFP, 24 h): 0.0 log2 | Log2 Fc SNIP1 (vs lenti-GFP, 24 h): −0.2 log2 | Log2 Fc SON (vs lenti-GFP, 24 h): −0.3 log2 | Log2 Fc SPRYD5 (vs lenti-GFP, 24 h): −0.1 log2 | Log2 Fc SPTY2D1 (vs lenti-GFP, 24 h): −0.3 log2 | Log2 Fc TFIP11 (vs lenti-GFP, 24 h): 0.1 log2 | Log2 Fc THOC4 (vs lenti-GFP, 24 h): −0.2 log2 | Log2 Fc TPRX1 (vs lenti-GFP, 24 h): −0.1 log2 | Log2 Fc TRIM23 (vs lenti-GFP, 24 h): 0.6 log2 | Log2 Fc TRIM43 (vs lenti-GFP, 24 h): 0.0 log2 | Log2 Fc USP29 (vs lenti-GFP, 24 h): −0.1 log2 | Log2 Fc ZNF217 (vs lenti-GFP, 24 h): −0.3 log2 | Log2 Fc ZNF705A (vs lenti-GFP, 24 h): −0.1 log2 | Log2 Fc ZNHIT6 (vs lenti-GFP, 24 h): 0.3 log2 | Log2 Fc ZSCAN2 (vs lenti-GFP, 24 h): −0.2 log2 | Log2 Fc ZSCAN4 (vs lenti-GFP, 24 h): 0.0 log2
